As usually defined, the IC50 is the midpoint of a concentration-inhibition curve. Higher therefore signals weaker potency in that assay.

LexA-PolB (779-783) fusion (plasmid pLexAPolB(779-783)), sequence (P0A7C2 other isoform, or with tags, fused parts or gaps limits assumed): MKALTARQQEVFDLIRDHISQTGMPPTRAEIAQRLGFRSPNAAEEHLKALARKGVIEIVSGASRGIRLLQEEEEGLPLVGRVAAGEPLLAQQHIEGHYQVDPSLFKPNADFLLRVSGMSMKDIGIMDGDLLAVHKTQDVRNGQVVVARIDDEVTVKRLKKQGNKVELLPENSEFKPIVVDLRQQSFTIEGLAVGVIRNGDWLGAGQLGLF
LexA-MutS (802-818) fusion (plasmid pLexAMutS(802-818)), sequence (P0A7C2 other isoform, or with tags, fused parts or gaps): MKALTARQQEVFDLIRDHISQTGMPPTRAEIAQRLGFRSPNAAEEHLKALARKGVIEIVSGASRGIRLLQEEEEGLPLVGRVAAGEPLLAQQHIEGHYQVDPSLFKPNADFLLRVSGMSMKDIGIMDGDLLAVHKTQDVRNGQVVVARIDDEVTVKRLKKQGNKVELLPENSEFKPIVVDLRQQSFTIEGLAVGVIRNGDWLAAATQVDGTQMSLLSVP
LexA-DinB (307-317) fusion (plasmid pLexADinB (307-317)), sequence (P0A7C2 other isoform, or with tags, fused parts or gaps): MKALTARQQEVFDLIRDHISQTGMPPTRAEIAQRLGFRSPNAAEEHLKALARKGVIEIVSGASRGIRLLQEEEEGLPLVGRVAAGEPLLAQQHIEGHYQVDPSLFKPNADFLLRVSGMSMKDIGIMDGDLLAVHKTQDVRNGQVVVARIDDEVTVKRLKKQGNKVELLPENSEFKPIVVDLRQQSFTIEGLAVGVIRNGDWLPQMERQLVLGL

In the first assay the target is Escherichia coli β subunit of DNA Polymerase III (β protein) (Escherichia coli) (UniProt P0A988).
On to pep18 Ac-DLF-NH2 (peptide), for which the IC50 turned out to be 135 µM.

The target of another assay is E. coli β fused to the B42 transcriptional activation domain (plasmid pB42ADβ) (Escherichia coli) (UniProt P0A988).
“LexA-PolB (779-783) fusion (plasmid pLexAPolB(779-783)) (from UniProt P0A7C2 1-202)” showed a β-gal activity Miller units (yeast two-hybrid; interact with β: +) of 69.6 Miller units. Same read-out and setting: for “LexA-DnaE (542-991) fusion (plasmid pLexADnaE (542-991)) (from UniProt P0A7C2 1-202; P10443 542-991)” the value was 60.1 Miller units. pLexA yielded a β-gal activity Miller units (yeast two-hybrid; interact with β: -) of 1.5 Miller units.

In turn, “LexA-MutS (802-818) fusion (plasmid pLexAMutS(802-818)) (from UniProt P0A7C2 1-202)” came in with a β-gal activity Miller units (yeast two-hybrid; interact with β: +) of 43.8 Miller units. As for “LexA-DnaE (896-919) fusion (plasmid pLexADnaE (896-919)) (from UniProt P0A7C2 1-202; P10443 896-919)”, the β-gal activity Miller units (yeast two-hybrid; interact with β: -) amounted to 0.1 Miller units.

In the case of “LexA-DinB (307-317) fusion (plasmid pLexADinB (307-317)) (from UniProt P0A7C2 1-202)”, the β-gal activity Miller units (yeast two-hybrid; interact with β: +) came out at 75.1 Miller units. Same read-out and setting: next, “LexA-DnaE (736-991) fusion (from UniProt P0A7C2 1-202; P10443 736-991)”: 135 Miller units; “LexA-DnaE (908-931) fusion (plasmid pLexADnaE (908-931)) (from UniProt P0A7C2 1-202; P10443 908-931)”: 32.3 Miller units.

For “LexA-UmuC (351-365) fusion (plasmid pLexAUmuC(351-365)) (from UniProt P0A7C2 1-202)”, the β-gal activity Miller units (yeast two-hybrid; interact with β: +) worked out at 94.8 Miller units. With “LexA-DnaE (542-735) fusion (from UniProt P0A7C2 1-202; P10443 542-735)”, the β-gal activity Miller units (yeast two-hybrid; interact with β: -) was 1.1 Miller units.

The record behind these values is patent US20040132121A1, “Method of identifying antibacterial compounds” (priority 2000, published 2004).
